Experimental data taken from article PMC8481183, “Resonance assignment of coiled-coil 3 (CC3) domain of human STIM1” (Biomolecular Nmr Assignments, 2021).

Molecular target: the molecule itself
Assay: circular dichroism; STIM1 CC3 alone in 20 mM Bis-Tris, pH 6.0, without TFE, 20 °C; ratio [CD]222/[CD]208 as coiled-coil index

B1: human STIM1 coiled-coil3 (CC3) fragment (amino acids 388–430) (domain or fragment, UniProt Q13586 388-430, looked up)
chain: NTLFGTFHVAHSSSLDDVDHKILTAKQALSEVTAALRERLHRW
notes: Cloned in pGEX 4T-1 (GST tag with thrombin cleavage site); The NMR sample was 15N/13C labelled; Purification follows Rathner et al. 2018; also called STIM1 CC3; CC3 domain; source: E. coli BL21, purified (protocol of Rathner et al. 2018, slightly modified)
- binding result: binds
